Laboratory results reported in the DeepSol protein solubility set.

Experiment: soluble on expression in E. coli; label from the status in PepcDB or PDB records

Soluble on expression in E. coli, soluble:
MNEQAILQSAEAWVKKQLMDEYSGHDWYHIRRVTLMAKAIGEQEKVDVFVVQIAALFHDLIDDKLVDDPETAKQQLIDWMEAAGVPSQKIDHTMDIINTISFKGGHGQSLATREAMVVQDADRLDALGAIGIARTFAYSGNKGQPIYDPELPIRETMTVEEYRHGKSTAINHFYEKLFKLKDLMNTETGKQLAKERHVFMEQFIERFLSEWNGDMLEHHHHHH
MATGDGKSVMVVGVDDSEQSTYALEWTLDRFFAPYAPNYPFKLFIVHAKPNAVSAVGLAGPGTAEVVPYVDADLKHTAAKVVEKAKAICQSRSVHGAVIEVFEGDARNILCEVVDKHHASILVVGSHGYGAIKRAVLGSTSDYCAHHAHCSVMIVKKPKIKV
MGSSHHHHHHSSGRENLYFQGMPIITFLPSGKRAEVDEGKTILSAAQEIGEGIRSLCGGKGSCGKCLVVVRKGDVEILSEEAHEKFVREKGYYLACQTAVKGDVEVFIPPESRLERQQILKDFFISSKEFNPVVKVEFCSDAFLPEVLSQKGLRLACSTDVEEGDFGLVVRGKEVIDVLPDEKAFGLAVDVGTTTIVAALVDLKDGKVVNVASDYNGQIIYGEEVLSRVEFARSRKDGVEVLQRAVVESINKLIDKLLEGYATPDRIYDVVAAGNTIMTHFLVGKDVEYLFSSPDVKVEREGFVVNASEIGLKVNSNAELFCLPPVGRFVGGDIVGDILASRIVDSATISLMVDLGTNGEIVVGSEGWAMATSVASGPAFEGYEIKHGSRAVEGAIDHVEIEGEEVRYTVIGNGKPRSICGSGLIDLMAEMFKNGILDATGAMNKKHPRVRRGEDGYEFVVVEAEKSATAKDIVFTEKDVETLLKSKAAVCAGIAVLIKKAGLGLEDIDEFYIAGAFGYYINFDNAVTIGLFPELKAEVKQIGNGSLAGAYLALVSERKRKLAETIANAFAYFDLSTDADFVEEYRAALSLPGRPELFPETYAKYV
MRVSKSKKPTEICPIVSAIAIIGSEPKLLTIRYLLDGPKRFNELQRLTSLSSKTLSKTLKELENHGIVERKIINSHPIVAVYELTDKGKDLKRVFDELRRWGEKFALTKIAVMNSIRVNQEF
SLKALWIYVGPVEDYGWTRAHHDGHMKARSKLGWLESSYIETVSEDKAYDVIKAQLDAEGYDAVFATSYGYMDALKRLATEYPDVKFYHCSGPWEEFRDLPNVSTYFAEFYQLYYLNGLAAAGATETCNLGYIPAFLIPEVVRHINAYVIGAVEGAKVLGKCGDGRNIRVLVTPPLNSWFAPDKARDAARLLVETYDVDVIAYTEDTTAVLETAESYWDQGVKVYSFSHYTDMYAYFKSQGKTLRSHLTGQIS
MEKHPGKLFYRLSRLAPGDALPLKRGPKAKVYANPLETQALPPFRQDGGPPLFRAMAHLRPLLPEVGASLTLKDLSQVLYPLAEREGRRGFPSAGEAYPLEAYLVVRRVEGVFPGVYHYFPREHQLFQIASKVEEAAWAEALMGVALDRAAVLLVLTLLPERSEALFGLRGYRYALLEAGYAAGLVLLAAVGQGLAAYPAETFHDEGVARLLGLPEGEYPGVVVVLGR
MVTREEFVARFGGVFEHSPFIAERAYDAGGAGLELTAKAVHGALCAQFRVASEAERLGVLRAHPDLAGKLAIAGELTADSRNEQAGAGLDRLSPQEHARFTQLNSAYTEKFGFPFIIAVKGLNRHDILSAFDTRIDNNAAQEFATATGQVEKIAWLRLASMLPEGLEHHHHHH

Soluble on expression in E. coli, not soluble:
MRYWKNSRIKMFEQEDEWISKTQMKKQMNDLQDLGMALTKLSNDTLKKIGLDADLYEAVTAYKKITSNGALKRQAQFIGRLMRDTDPAPIEAFLAKLRGDDAAHNAFLQRVEQARVRLLADDGALTQFMSDFPHADAGKLRTLIRNTKKEQEQNKPPKNFRALFQELKTVMENGDAEI
MRLATKDLAEAIRKGQVRKSSFNTEQLRAIEKGESKIPDYTWHHHQDTGRMQLIREGLHHDTGHIGWEAMNKGR
GPGSMRSTAPLFMAQGIWAGFRYYLGHFFYPNMYREYLSVQNAHKIERALRIQTAIKANRVDYRALLALPVTDHAHPYKMEYPWEKVINTDKSKLSGYGKWYASKIMCFYEGLQYHKYGCLQDDLINAHGWWNRAARTRAPQDKIVHGDRRVMRARVLRDKYIYEPKSRWVHPIDNVAYFGPYVMMVCDEWEEKWGFFAGQEVEY
MGSDKIHHHHHHMINLEKYRIDLNEKKSTKYIQIFNHIKELIINKELVEHEKLPPIRKLSNFLQVNNTTIVKVYELLENEGYVYKIIGSGTFVSSLNSYKSGIDNRKNKIIVQREDLIHFDNGNPSNDMFPIDSFKNAVNMALSKDGSSIFEYDEGLGSEELREKMVEYLSDGNIKTTKENIQIISGAQQGIDIVCKGLISYSDVVFMEEPSYNGAIEVFKSRGAKIISIPMLDDGIDIGILKLKLEKIKPRLIYIMPNFQNPTGISYSTYKKKKLIELAEEHDFYIIEDDFISDFVFESKDNRTIRSYDDKNRVVYIKSFSKILMPGLRIGIVEMPNELLKKVLWAKYSSDISTPGLIQKSMYYYMNNFDWKNYLSHIEKIYTDKYKLAKNLINDKLSGKLKVRKSCGGINFFLELPRGYTSQAFTNFMLNKGVSMLPGTYFFDNLVDDRFFRINIARPSMEELEKGISIISDNIDEFFCEYKNKLDIKSNKLFY
MGSDKIHHHHHHMTPSDTNAPVDRLKIGFVLARSFTLSAFALFVDTLRLASDEFDRSGRVLADWDVLGSTRHLITSSCGVQVAPTSDLVEDPSQFQFIVVVGGLLNNEQPIDRETAAFLKKAAAKNVKLIGVCTGSFILAELGLMKSHRTCVSWLHYNAFRERFPDLQVRSDRIFNLDRTRGSCVGGSSAADMAALIVRRHISKDAERNALEVLHIEKARSALAIQTRKPLSIECNDPRIRATLIMMEQHIEGNLPIQDLAAAVGLSRRQLERLFISETKSSPAMIYRRVRLERAKHLLVQSKAPLVEIALEVGFGNASHFAKVFAQTFGQSPTGLRTAIRATL
MGSDKIHHHHHHMNVVVCIKQVPDTTNVRIDRKTNNLVREGVPSIINPDDERALELASQLKEKFGATVYVITMGPPQAKEALKDAIAFGLDEAVHLSDRTFAGADTLATTYTLYWGIKKIEERIGKIDLILTGKQAVDGDTGQVGPGLATRFGYALGAYVVRIEEIDPEKKEMVIVRRLDQGFEKIRLKLPAVLTITDELNKPRYADLPNLIRAIRYEPIVWTHKDLGLDPKKCGFFGSPTRVVSTNIPPARKGGDIISKNEDPEVAAEKLIEALKKFEAVRLVEALKPVLEGEKDE
MGSDKIHHHHHHMPQLQTNNTALSTQQSAEMKTTRLLKVLKIMFPRENWTSQKLTSEVNVKGSGVYRFEHGTIAHLGQPGGPRTEHLWEMTVDRVWAKALIEAHNQAQESEALVRTQAEVYPKDWYGLRLRSPAEAAIAEALQTKGVLFFVNTGCRLHNHSKQYETREVDFLVFHQGKVRILEVDGITYHQNPLADYKRDRLFDREGIRTSRFSAQECFENPNGVVEEFLGLFKF
MGGSHHHHHHGMASALAAKVDLSTSTDWKEAKSFLKGLSDKQREEHYFCKDFVRLKKIPTWKEMAKGVAVKVEEPRYKKDKQLNEKISLLRSDITKLEVDAIVNAANSSLLGGGGVDGCIHRAAGPLLTDECRTLQSCKTGKAKITGGYRLPAKYVIHTVGPIAYGEPSASQAAELRSCYLSSLDLLLEHRLRSVAFPCISTGVFGYPCEAAAEIVLATLREWLEQHKDKVDRLIICVFLEKDEDIYRSRLPHYFPVA
MGSDKIHHHHHHPSEEVAKSGNPVFEGWYADPEGIIYGDTYWIYPTTSDLYEKQTFFDCFSSKDLVSWTKHTAILDTAEVKWAKIAMWAPSVINKDGKYYLFFGANDVHEGEIGGIGVAVSDRPEGPYKDLLGKPLINEIVNGAQPIDQFVFHDADNDEYYMYYGGWKHCNMVRLNKDFTGLIPFEDGTIYKEVTPKDYVEGPFMFKKNGKYYFMWSEGGWTGPDYKVAYAISDSPFGPFNRIGEVLRQNFDMANGAGHHSIMHVPNSEDYYIVYHRRPAGVKTRDHRETCIEKMTFNEEGLINPVEITTEGVEARTIQ
